Test results taken from article PMC4627693 (Chemistry & biology, 2014).
Where no end group is shown, it is not given here. The star is where a group is joined. Biotin = O=C1N[C@H]2[C@H](CS[C@H]2CCCCC(=O)*)N1; code Z = ethylene glycol unit

Target: c-Src tyrosine kinase (recombinant) (UniProt P00523 1-533)
Assay: cross-linking

With {Biotin-code Z-code Z}-ICGEFRRR [Cys-Srctide (Biotin-ZZICGEFRRR)] the EC50 was 63 µM.
